# Source: patent US20230330253A1
# Molecular target: human claudin 18.2 (CLDN18.2) (human)
# Experiment: cell-based or functional assay
substance,measurement,value
IgG (Control) (antibody),"Fluorescence, pHAb internalization on MKN45-CLDN18.2 cells, 20 nM antibody, normalized by DAR",854
same,"Fluorescence, pHAb internalization on MKN45-CLDN18.2 cells, 100 nM antibody, normalized by DAR",2700
